Assay [1] deals with RC1 Env SOSIP trimer (HIV-1 strain BG505). The assay can be described thus: cryo-EM structure.
Assay [2] addresses WIN332 Env SOSIP trimer (HIV-1 strain BG505). The assay is described as follows: cryo-EM structure.

B1: Ab1999 Fab (Fab, V domains shown)
VH: QVQLQESGPGLVKPSETLSLTCAVSGGSISDDYSWSWIRQPPGKGLEWIGYIYGSGGGTNYNPSLKNRVTISIDTSKNQFSLKLSSVTAADTAVYYCARIFAFITVFGVVTPEDNWFDVWGPGVLVTVSS
VL: DIQMTQSPSSLSASVGDRVTITCRASQSINNYLHWYQQRAGEAPKLLIYAASALQTGVPSRFSGSGSGTDFTLTISSLQPEDVATYYCQHSYGTPYSFGQGTKVEIK
In assay [1], B1 returned a stoichiometry N (Fab per Env trimer) of 1.

B2: Ab1983 Fab (Fab, V domains shown)
VH: QLQLQESGPGLVKPSETLSLTCAVSGGSISSDYYYWSWIRQPPGKGLEWIGGIYSISESTNYNPSLKSRVTISKDTSKNQFSLKLSSVTAADTAVYFCARKDPYSSGWTPDYWGQGVLVTVSS
VL: QSVLTQPSSASASLGASVTLTCTLSSGYSNYAVDWHQQRPGKGPQFVMRVGTGGIVGSKGDGIPDRFSGSGSGLNRYLTIKNIQEEDESDYHCGADHGTGSSFVWVFGGGTRLTVL
Molecule B2 had a stoichiometry N (Fab per Env trimer) in assay [2] of 2.
